{"source": "patent US7052704B2", "about": "“Methods and compositions for lipidization of hydrophilic molecules” (University of Southern California, priority 1995, dated 2006)", "key": {"[1]": {"test_system": "C3H 10T1/2(clone 8) cells", "test": "In vitro transformation assay (MCA-induced)", "format": "cell-based", "settings": "MCA 1 μg/ml 24 hr, then conjugates 1.0 μg/ml for first three weeks", "experimental": "Transformation assays were carried out using C3H 10T1/2(clone 8) cells according to the published recommendations [Reznikoff, C. A. et al. (1973) Cancer. Res. 33, 3239–3249; Reznikoff, C. A. et al. (1973) Cancer. Res. 33, 3231–3238]. Stock cultures of mycoplasma-free cells were maintained by passing 50,000 cells per 75 cm^2 flask every seven days. Using this schedule, the cells were always passed approximately 2 days before reaching confluence. The stock culture was grown in Eagle's basal medium supplemented with 10% FBS, penicillin (100 units), and streptomycin (100 μg) and used for the transformation assays at passages of 9 to 14. The cells were passed by treating the stock cells with trypsin (0.1%) in PBS for 5 min and quenching the trypsin with 5 ml of the medium. This procedure was adapted to minimize spontaneous transformation in the stock cultures and maximize the plating efficiency in the petri dishes. The FBS stock used in the cultures was pre-screened to ensure that the serum was able to support the expression and the growth of the transformed cells.\nFor the transformation assays, C3H 10T1/2 cells (1000/dish) were seeded into 60 mm petri dishes and allowed to grow in a humidified 5% CO2 atmosphere in Eagle's basal medium, supplemented with 10% FBS, penicillin (100 units), and streptomycin (100 μg), for 24 hr. Subsequently, the cells were initiated by treatment with 25 μl of the 3-methylcholanthrene (MCA) in acetone stock solution ([…]) to a final concentration of 1 μg/ml of MCA (5 μg/5 ml). The cells were allowed to grow in the presence of the carcinogen or solvent for 24 hr, and the medium in each dish was then replaced with fresh medium containing no carcinogen or solvent. The medium in the dishes was replaced twice per week for the first two weeks of the assay, and thereafter once a week for the remainder four weeks of the assay. In the experiments designed to determine the transformation inhibitory activity of the conjugates, the cells were maintained in the medium containing the conjugates (1 μg/ml) for the first three weeks of the assay; thereafter, the cells were maintained in medium containing no added conjugates.\nSix weeks after the carcinogen treatment, the cells were inspected under a microscope for adherence to the culture dishes and were washed with PBS and then fixed in 100% methanol. The fixed monolayers were then stained with Giemsa stain. 20 dishes per group were treated in each experiment. In addition to the test groups, all the transformation assays contained at least three other groups: negative control (not treated with carcinogen or solvent), acetone control (treated with 25 μl of acetone), and positive control [treated with MCA (1 μg/ml) in 25 μl of acetone]. The transformed foci (>3 mm in diameter) in the plates were studied under a microscope and classified according to published guidelines as types I, II, or III [Landolph, J. R. (1985) Transfomatin assay of established cell lines: Mechanism and Application (ed. Kakunaga, T., and Yamasaki, H.) IARC Scientific Publications, Lyon, France pp. 185–201]. Briefly, type III foci were dense, multilayered, basophilic, areas of cell growth which stained to a deep blue color with Giemsa and had rough criss-crossed edges. Type II foci were also dense, multilayered, areas of cell growth, but were stained to a purple color with Giemsa and had smoother, more defined edges compared to Type III foci. Type I foci were not scored in the assay.\nBBI, either as the free protein or in conjugated form to palmitic or oleic acid, was added to the cultures at 1.0 μg/ml for the first three weeks of the transformation assay period starting immediately after the MCA treatment. MCA-treated cells were exposed to 3-methylcholanthrene, dissolved in 25 /μl of acetone, at a concentration of 1 μg/ml for 24 hr. Acetone-treated cells were exposed to 25 μl of acetone for 24 hr only. […]"}, "C3H 10T1/2 cells": {"test_system": "C3H 10T1/2 cells", "test": "Plating efficiency in conjunction with transformation assay", "format": "cell-based", "settings": "200 cells/dish, 10 days; conjugates 1.0 μg/ml after MCA 1 μg/ml 24 hr", "experimental": "The plating efficiency (PE) of the cells was also studied in conjunction with each of the transformation assays. To determine the PE of the cells in the different treatment groups, cells (200 cells/dish) were seeded into three 60-mm petri dishes per experiment group and treated in the identical manner as the transformation assay cells. The cells in these assays were terminated at 10 days, fixed with 100% methanol, and stained with giemsa; the colonies of 50 cells or more visible under a microscope were then counted. The plating efficiency is defined as the (number of colonies/number of cells seeded)*100."}, "[2]": {"settings": "cited from earlier work"}, "[3]": {"test": "iv-biodistribution of 125I-BBI conjugates"}}, "data": [{"molecule": "BBI: hydrophilic protein which has low uptake into cells and is not orally bioavailable; used for chemoprevention (protein, UniProt P01055 40-110, looked up) Bowman-Birk type proteinase …: DDESSKPCCDQCACTKSNPPQCRCSDMRLNSCHSACKSCICALSYPAQCFCVDITDFCYEPCKPSEDDKEN", "values": [{"measurement": "transformed foci in the dishes scored", "setting": "[1]", "value": "no transformed foci"}, {"measurement": "Fraction of dishes containing transformed foci", "setting": "[1]; scored at six weeks", "value": 0}, {"measurement": "No. of dishes with transformed foci/No. of dishes", "setting": "[1]; scored at six weeks", "value": "0/20"}, {"measurement": "Plating Efficiency (%)", "setting": "C3H 10T1/2 cells", "value": "24 ± 2.0", "unit": "%"}, {"measurement": "oral bioavailability", "setting": "[2]", "value": "not orally bioavailable"}, {"measurement": "stability in the GI tract", "setting": "[2]; mammalian proteases in the gut, Yavelow et al. 1983", "value": "stable in the GI tract"}, {"measurement": "kidney accumulation", "setting": "[3]; 3 mg/kg", "value": "rapidly accumulated in the kidneys"}, {"measurement": "blood level and removal from circulation", "setting": "[3]; 3 mg/kg, 0.5, 3 and 24 hr", "value": "rapidly excreted from the body without attaining high blood levels"}]}]}
